Data taken from PMC4150762, “The DEAD-box helicase Ded1 from yeast is an mRNP cap-associated protein that shuttles between the cytoplasm and nucleus” (Nucleic Acids Research, 2014).
Where two headings read alike, the source gives them in different places.

Columns and labels:
[1] = molecular target: T1, Ded1-His6 (S. cerevisiae, UniProt P06634 1-604); assay: cell-based or functional assay
[2] = molecular target: T1, Ded1-His6
[3] = molecular target: T1, Ded1-His6; assay: pull-down; purified GST-eIF4G1 fragments bound to glutathione Sepharose beads, incubated with Ded1, eluted with 10 mM reduced glutathione; Coomassie-stained SDS PAGE, verified by western blot for Ded1; same results with or without RNase I or AMP-PNP; conditions: both partners purified

T1 sequence (P06634 whole entry): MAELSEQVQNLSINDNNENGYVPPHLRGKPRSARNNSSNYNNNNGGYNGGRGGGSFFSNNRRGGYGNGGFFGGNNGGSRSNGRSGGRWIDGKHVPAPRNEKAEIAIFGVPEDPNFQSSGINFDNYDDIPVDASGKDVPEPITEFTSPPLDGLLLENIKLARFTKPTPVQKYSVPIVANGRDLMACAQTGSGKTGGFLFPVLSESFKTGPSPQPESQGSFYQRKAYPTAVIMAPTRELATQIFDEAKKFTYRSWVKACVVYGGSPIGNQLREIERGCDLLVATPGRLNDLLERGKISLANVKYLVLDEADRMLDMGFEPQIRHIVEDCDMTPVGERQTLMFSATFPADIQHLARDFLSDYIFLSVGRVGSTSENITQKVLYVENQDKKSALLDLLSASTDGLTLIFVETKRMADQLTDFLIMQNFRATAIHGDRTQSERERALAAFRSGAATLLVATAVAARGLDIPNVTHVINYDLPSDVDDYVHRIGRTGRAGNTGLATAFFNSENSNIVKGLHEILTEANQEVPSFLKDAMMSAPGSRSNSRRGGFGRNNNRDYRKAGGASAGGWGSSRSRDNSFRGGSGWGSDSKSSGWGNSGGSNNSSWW

RNA-dependent ATPase activity, % Ded1 [1] [%]	Binder	other results
141	GST-eIF4G1 fragment 542-952 (domain or fragment, S. cerevisiae, UniProt P39935 542-952, looked up) SYTSRRDRERGSYRNEEKREDDKPKEEVAPLVPSANRWVPKFKSKKTEKKLAPDGKTELLDKDEVERKMKSLLNKLTLEMFDAISSEILAIANISVWETNGETLKAVIEQIFLKACDEPHWSSMYAQLCGKVVKELNPDITDETNEGKTGPKLVLHYLVARCHAEFDKGWTDKLPTNEDGTPLEPEMMSEEYYAAASAKRRGLGLVRFIGFLYRLNLLTGKMMFECFRRLMKDLTDSPSEETLESVVELLNTVGEQFETDSFRTGQATLEGSQLLDSLFGILDNIIQTAKISSRIKFKLIDIKELRHDKNWNSDKKDNGPKTIQQIHEEEERQRQLKNNSRSNSRRTNNSSNRHSFRRDAPPASKDSFITTRTYSQRNSQRAPPPKEEPAAPTSTATNMFSALMGESDDEE	–
119	Pab1 with an amino-terminal His6 tag (natural protein, S. cerevisiae, UniProt P04147 1-577, looked up) MADITDKTAEQLENLNIQDDQKQAATGSESQSVENSSASLYVGDLEPSVSEAHLYDIFSPIGSVSSIRVCRDAITKTSLGYAYVNFNDHEAGRKAIEQLNYTPIKGRLCRIMWSQRDPSLRKKGSGNIFIKNLHPDIDNKALYDTFSVFGDILSSKIATDENGKSKGFGFVHFEEEGAAKEAIDALNGMLLNGQEIYVAPHLSRKERDSQLEETKAHYTNLYVKNINSETTDEQFQELFAKFGPIVSASLEKDADGKLKGFGFVNYEKHEDAVKAVEALNDSELNGEKLYVGRAQKKNERMHVLKKQYEAYRLEKMAKYQGVNLFVKNLDDSVDDEKLEEEFAPYGTITSAKVMRTENGKSKGFGFVCFSTPEEATKAITEKNQQIVAGKPLYVAIAQRKDVRRSQLAQQIQARNQMRYQQATAAAAAAAAGMPGQFMPPMFYGVMPPRGVPFNGPNPQQMNPMGGMPKNGMPPQFRNGPVYGVPPQGGFPRNANDNNQFYQQKQRQALGEQLYKKVSAKTSNEEAAGKITGMILDLPPQEVFPLLESDELFEQHYKEASAAYESFKKEQEQQTEQA	–

More lines, now with the values behind:

Binder	RNA-dependent ATPase activity, % Ded1 [1] [%]	other results
Gle1 (recombinant) (natural protein, S. cerevisiae, UniProt Q12315 1-538, looked up) MRFVFDEVFNSDTDSPEFEETCSTTSSTSSQCPTPEPSPAIKLPSFTKVGTKKLVNESVVILDPALENALRDLNLQSKLIPINEPIVAASSIIVPHSTNMPLPRASHSSLLDNAKNSNATAPLLEAIEESFQRKMQNLVLANQKEIQSIRENKRRVEEQRKRKEEEERKRKEAEEKAKREQELLRQKKDEEERKRKEAEAKLAQQKQEEERKKIEEQNEKERQLKKEHEAKLLQQKDKLGKAVTNFDKISKMFWHYKDKIAQIKQDIVLPIKKADVNVRNLLSRHKRKINPKFGQLTNSNQQLFKIQNELTQLINDTKGDSLAYHWILNFIAKAVVHQAETEVRVKPESALPLGKLTLYLLVQFPELQELFMARLVKKCPFVIGFTCEIDTEKGRQNMGWKRNNENKWEDNTSYDERMGGILSLFAIITRLQLPQEFITTTSHPFPIALSWHILARICNTPLNLITNTHFVILGSWWDAAAVQFLQAYGNQASKLLILIGEELTSRMAEKKYVGAARLRILLEAWQNNNMESFPEMSP	191	–
Cbp80 (557–861) (domain or fragment) QLINYYQSLFTGYTVEEDSVRKNDLYFRQEGVPMENTVRKILDYTHKANNSREVTELESILGELKNEYGSIISDFNRFVIILLVQAVTDSGSRSLSHANKYINDLKEDLKTIFAKIELDIETKEYIIIEAVLTFWNANPQTGFLVADAFKYAGLLTSRTIFTFIFNETGLKNNGLIEATAIEAVFRNLSQQISEENESGNNFEFVFERLCTIANSTIDLLDVNADEDIEIPKVNGEMDIDDIEDDKLDLKWKYFTVIGFIKSILRRYSHEYRELADKFIANIDNAIPHESTRRTISNWIQETKEV	–	RNA-dependent ATPase activity, % Ded1 [2]: 144%
GST-eIF4G1 fragment 882-952 (domain or fragment, S. cerevisiae, UniProt P39935 882-952, looked up, eIF4G1 of S. cerevisiae, residues 882-952; also called 882–952 fragment; source: E. coli (pGEX-2T), purified on glutathione Sepharose; not shown: GST, N-terminal, kept) RSNSRRTNNSSNRHSFRRDAPPASKDSFITTRTYSQRNSQRAPPPKEEPAAPTSTATNMFSALMGESDDEE	–	binding result [3]: binds
GST-NAB2-HIS6 (natural protein, S. cerevisiae, UniProt P32505 1-525, looked up) MSQEQYTENLKVIVAEKLAGIPNFNEDIKYVAEYIVLLIVNGGTVESVVDELASLFDSVSRDTLANVVQTAFFALEALQQGESAENIVSKIRMMNAQSLGQSDIAQQQQQQQQQQQPDIAQQQPQQQPQQQPQQQPQQQPQQQPQQQPQQQPQQQPQLQPLQPQLGTQNAMQTDAPATPSPISAFSGVVNAAAPPQFAPVDNSQRFTQRGGGAVGKNRRGGRGGNRGGRNNNSTRFNPLAKALGMAGESNMNFTPTKKEGRCRLFPHCPLGRSCPHAHPTKVCNEYPNCPKPPGTCEFLHPNEDEELMKEMERTREEFQKRKADLLAAKRKPVQTGIVLCKFGALCSNPSCPFGHPTPANEDAKVIDLMWCDKNLTCDNPECRKAHSSLSKIKEVKPISQKKAAPPPVEKSLEQCKFGTHCTNKRCKYRHARSHIMCREGANCTRIDCLFGHPINEDCRFGVNCKNIYCLFRHPPGRVLPEKKGAAPNSNVPTNERPFALPENAIIENAPPQTSFTHQEQDTEMN	150	–
GST-eIF4G1 fragment 1-596 (domain or fragment, S. cerevisiae, UniProt P39935 1-596, looked up) MTDETAHPTQSASKQESAALKQTGDDQQESQQQRGYTNYNNGSNYTQKKPYNSNRPHQQRGGKFGPNRYNNRGNYNGGGSFRGGHMGANSSNVPWTGYYNNYPVYYQPQQMAAAGSAPANPIPVEEKSPVPTKIEITTKSGEHLDLKEQHKAKLQSQERSTVSPQPESKLKETSDSTSTSTPTPTPSTNDSKASSEENISEAEKTRRNFIEQVKLRKAALEKKRKEQLEGSSGNNNIPMKTTPENVEEKGSDKPEVTEKTKPAEEKSAEPEVKQETPAEEGEQGEKGQIKEESTPKVLTFAERLKLKKQQKEREEKTEGKENKEVPVQEETKSAIESAPVPPSEQVKEETEVAETEQSNIDESATTPAIPTKSDEAEAEVEAEAGDAGTKIGLEAEIETTTDETDDGTNTVSHILNVLKDATPIEDVFSFNYPEGIEGPDIKYKKEHVKYTYGPTFLLQFKDKLNVKADAEWVQSTASKIVIPPGMGRGNRSRDSGRFGNNSSRGHDFRNTSVRNMDDRANSRTSSKRRSKRMNDDRRSNRSYTSRRDRERGSYRNEEKREDDKPKEEVAPLVPSANRWVPKFKSKKTEKKLAPDG	206	–
1–387-GST fragment of eIF4G1 (domain or fragment, S. cerevisiae, UniProt P39935 1-387, looked up, not among the constructs of the methods) MTDETAHPTQSASKQESAALKQTGDDQQESQQQRGYTNYNNGSNYTQKKPYNSNRPHQQRGGKFGPNRYNNRGNYNGGGSFRGGHMGANSSNVPWTGYYNNYPVYYQPQQMAAAGSAPANPIPVEEKSPVPTKIEITTKSGEHLDLKEQHKAKLQSQERSTVSPQPESKLKETSDSTSTSTPTPTPSTNDSKASSEENISEAEKTRRNFIEQVKLRKAALEKKRKEQLEGSSGNNNIPMKTTPENVEEKGSDKPEVTEKTKPAEEKSAEPEVKQETPAEEGEQGEKGQIKEESTPKVLTFAERLKLKKQQKEREEKTEGKENKEVPVQEETKSAIESAPVPPSEQVKEETEVAETEQSNIDESATTPAIPTKSDEAEAEVEAEAGDA	–	binding result [3]: binds
Cbp80 (1–556) (domain or fragment) MFNRKRRGDFDEDENYRDFRPRMPKRQRIPPVVQLCKEMMPDIRTIGESVKAFEDDIKFLSEAIMNEYGHEDYFNNALLSTLNAVVVEQPQKQAAIALLTMVVNSKNNVAGKSIINYFFEELQKWCKQTYNDEFKSTSNETGPWNKIKLILRFLSILSPMFLVDELINIYKSLFELSIELNNLDPGNRVPLSEAIYTNTLLNIPYLFFFNRNNDGLRTKVEELLAYVEQNYLVKTTDINLLREYNGEPPYEMVELVRVVLPNVKKALINNLEQLNELFPDWNHLLTPQTGDEGFNDALTLPSVDDLKSFVRLNKNFGSVDSMWKTPRYAFHVYLPNSAGNFETVVPISTYAGQLFNDIIIDLVESLEFNRKEVARQVITLDLFFKAGIFTEPGESIAQLIATYEENPLAPTFKIEDLAIETILGLIFKLPSVSQPFAYFYTLLVDICQNSPKAIAPVFGRAFRFFYSHLDSLDFELKLRYLDWFSIQMSNFNFSWKWNEWEDDSIKFGKYFYNPKVNFAKNLIQKELRLTSNFSEVEDSLPQEFTKYLDTSYIPRD	–	RNA-dependent ATPase activity, % Ded1 [2]: 220%
